Measurements published in article PMC13246001, “Membrane binding controls the ATPase cycle and localization of MinD in Bacillus subtilis” (eLife, 2026).
Where a chain is given by its changes, count along the chain named. In names and notes the source's numbering stands.

Experiments:
[1] = biological target: His-MinD (B. subtilis MinD, N-terminally His-tagged) (B. subtilis) (UniProt Q01464)
[2] = substrate: Nc1ncnc2c1ncn2[C@@H]1O[C@H](COP(=O)(O)OP(=O)(O)OP(=O)(O)O)[C@@H](O)[C@H]1O; test: EnzChek phosphate release assay; assay type: biochemical, Bacillus subtilis; settings: 10 µM MinD, E. coli total lipid liposomes 0.2 mg/ml, Mg2+, 37 °C, HEPES-KOH pH 7.2 protein/liposome buffer
[3] = biological target: the molecule itself; test: SEC; Superdex200 Increase 10/300 GL, 0.75 ml/min, buffer C (50 mM HEPES-KOH, 150 mM KCl, 10% glycerol, 0.1 mM EDTA, pH 7.2) with 0.4 mM TCEP and 0.2 mM Mg2+-ADP; column calibrated with a gel filtration standard

Molecule: His-PDZ (soluble C-terminal PDZ domain of B. subtilis MinJ with N-terminal His-tag) (from UniProt O34375 1-397) (domain or fragment)
- relative ATPase activity (EnzChek phosphate release) of 6 µM His-MinD in the presence of 1, 3 and 5 µM His-PDZ, 0.2 mg/ml liposomes, 2 mM Mg2+-ATP; His-MinD alone = 1; highest value at 3 µM (relative activity) [1]: 1.37

B1: His-MinD (Bacillus subtilis subsp. subtilis str. 168) (protein)
chain: MGEAIVITSGKGGVGKTTTSANLGTALAILGKRVCLVDTDIGLRNLDVVMGLENRIIYDLVDVVEGRCKMHQALVKDKRFDDLLYLMPAAQTSDKTAVAPEQIKNMVQELKQEFDYVIIDCPAGIEQGYKNAVSGADKAIVVTTPEISAVRDADRIIGLLEQEENIEPPRLVVNRIRNHLMKNGDTMDIDEIVQHLSIDLLGIVADDDEVIKASNHGEPIAMDPKNRASIAYRNIARRILGESVPLQVLEEQNKGMMAKIKSFFGVRS
notes: full-length MinD, N-terminal His-tag kept (pET-28a NdeI/XhoI, plasmid NAP013), expressed in E. coli BL21(DE3)pLysS; monomer in ADP, dimerizes in ATPase cycle
- Km [2]: 173 µM
- kcat [2]: 0.01008 s⁻¹

B2: His-MinD-D40A (enzyme, B. subtilis, UniProt Q01464 1-268, looked up)
chain: B1 chain with D40A
notes: MinD of Bacillus subtilis 168 with D40A, made by site-directed mutagenesis of plasmid NAP013 (pET-28a-minD); Same construct as m1 but for the mutation; also called locked dimer; pET-28a-minD-D40A; source: E. coli BL21(DE3)/pLysS, purified (Ni-NTA, SEC) with Mg2+-ADP in the buffers; not shown: His-tag, N-terminal, kept
- binding result [3]: binds
